Data taken from publication doi:10.1101/2023.03.08.531793 (bioRxiv, 2023).

Target: T1, HIS-ABI3 fusion protein (Arabidopsis thaliana, UniProt Q01593 1-720)
T1 sequence (looked up): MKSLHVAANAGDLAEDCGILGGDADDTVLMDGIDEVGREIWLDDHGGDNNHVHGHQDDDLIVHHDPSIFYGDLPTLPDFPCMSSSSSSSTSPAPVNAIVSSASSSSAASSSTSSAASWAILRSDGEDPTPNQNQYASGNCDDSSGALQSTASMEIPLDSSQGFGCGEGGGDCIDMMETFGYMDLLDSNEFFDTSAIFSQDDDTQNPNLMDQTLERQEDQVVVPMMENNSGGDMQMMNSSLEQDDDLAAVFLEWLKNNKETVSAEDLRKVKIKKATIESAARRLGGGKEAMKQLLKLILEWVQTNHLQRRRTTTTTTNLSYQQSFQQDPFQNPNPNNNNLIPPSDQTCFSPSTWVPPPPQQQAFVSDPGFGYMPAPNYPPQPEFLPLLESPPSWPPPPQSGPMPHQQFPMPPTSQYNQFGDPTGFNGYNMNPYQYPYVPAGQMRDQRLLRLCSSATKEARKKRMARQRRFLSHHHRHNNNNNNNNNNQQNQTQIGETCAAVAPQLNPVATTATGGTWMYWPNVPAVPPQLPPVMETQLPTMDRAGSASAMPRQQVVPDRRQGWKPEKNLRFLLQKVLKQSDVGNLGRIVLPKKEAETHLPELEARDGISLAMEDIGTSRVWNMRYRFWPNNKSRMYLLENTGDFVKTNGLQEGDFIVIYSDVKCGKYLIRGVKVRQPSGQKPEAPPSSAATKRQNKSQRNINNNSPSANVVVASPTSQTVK
Test: pull-down

binding result: binds
B1: GST-ERF1 fusion protein (natural protein)
chain: not shown
